# Measurements as given in patent publication US20110294738A1, “PTHR1 RECEPTOR COMPOUNDS” (priority 2008, published 2011).
# * marks the point of attachment. Palmitoyl = CCCCCCCCCCCCCCCC(=O)*
# B1: Compound 93 (peptide)
# peptide: Palmitoyl-TNAGRSDTRQAYRKLL-NH2
# SMILES: CCCCCCCCCCCCCCCC(=O)N[C@H](C(=O)N[C@@H](CC(N)=O)C(=O)N[C@@H](C)C(=O)NCC(=O)N[C@@H](CCCNC(=N)N)C(=O)N[C@@H](CO)C(=O)N[C@@H](CC(=O)O)C(=O)N[C@H](C(=O)N[C@@H](CCCNC(=N)N)C(=O)N[C@@H](CCC(N)=O)C(=O)N[C@@H](C)C(=O)N[C@@H](Cc1ccc(O)cc1)C(=O)N[C@@H](CCCNC(=N)N)C(=O)N[C@@H](CCCCN)C(=O)N[C@@H](CC(C)C)C(=O)N[C@@H](CC(C)C)C(N)=O)[C@@H](C)O)[C@@H](C)O
# B2: Compound 1 (peptide)
# peptide: Palmitoyl-RRLHSTRNYIHMH-NH2
# SMILES: CCCCCCCCCCCCCCCC(=O)N[C@@H](CCCNC(=N)N)C(=O)N[C@@H](CCCNC(=N)N)C(=O)N[C@@H](CC(C)C)C(=O)N[C@@H](Cc1c[nH]cn1)C(=O)N[C@@H](CO)C(=O)N[C@H](C(=O)N[C@@H](CCCNC(=N)N)C(=O)N[C@@H](CC(N)=O)C(=O)N[C@@H](Cc1ccc(O)cc1)C(=O)N[C@H](C(=O)N[C@@H](Cc1c[nH]cn1)C(=O)N[C@@H](CCSC)C(=O)N[C@@H](Cc1c[nH]cn1)C(N)=O)[C@@H](C)CC)[C@@H](C)O
# B3: Compound 91 (peptide)
# peptide: Palmitoyl-TNAGRSDTRQQYAKLL-NH2
# SMILES: CCCCCCCCCCCCCCCC(=O)N[C@H](C(=O)N[C@@H](CC(N)=O)C(=O)N[C@@H](C)C(=O)NCC(=O)N[C@@H](CCCNC(=N)N)C(=O)N[C@@H](CO)C(=O)N[C@@H](CC(=O)O)C(=O)N[C@H](C(=O)N[C@@H](CCCNC(=N)N)C(=O)N[C@@H](CCC(N)=O)C(=O)N[C@@H](CCC(N)=O)C(=O)N[C@@H](Cc1ccc(O)cc1)C(=O)N[C@@H](C)C(=O)N[C@@H](CCCCN)C(=O)N[C@@H](CC(C)C)C(=O)N[C@@H](CC(C)C)C(N)=O)[C@@H](C)O)[C@@H](C)O
# B4: Compound 94 (peptide)
# peptide: Palmitoyl-AGRSDTRQQYRKLLFA-NH2
# SMILES: CCCCCCCCCCCCCCCC(=O)N[C@@H](C)C(=O)NCC(=O)N[C@@H](CCCNC(=N)N)C(=O)N[C@@H](CO)C(=O)N[C@@H](CC(=O)O)C(=O)N[C@H](C(=O)N[C@@H](CCCNC(=N)N)C(=O)N[C@@H](CCC(N)=O)C(=O)N[C@@H](CCC(N)=O)C(=O)N[C@@H](Cc1ccc(O)cc1)C(=O)N[C@@H](CCCNC(=N)N)C(=O)N[C@@H](CCCCN)C(=O)N[C@@H](CC(C)C)C(=O)N[C@@H](CC(C)C)C(=O)N[C@@H](Cc1ccccc1)C(=O)N[C@@H](C)C(N)=O)[C@@H](C)O
# B5: Compound 47 (peptide)
# peptide: Palmitoyl-KLRETNAGRSDTRQQRKLL-NH2
# SMILES: CCCCCCCCCCCCCCCC(=O)N[C@@H](CCCCN)C(=O)N[C@@H](CC(C)C)C(=O)N[C@@H](CCCNC(=N)N)C(=O)N[C@@H](CCC(=O)O)C(=O)N[C@H](C(=O)N[C@@H](CC(N)=O)C(=O)N[C@@H](C)C(=O)NCC(=O)N[C@@H](CCCNC(=N)N)C(=O)N[C@@H](CO)C(=O)N[C@@H](CC(=O)O)C(=O)N[C@H](C(=O)N[C@@H](CCCNC(=N)N)C(=O)N[C@@H](CCC(N)=O)C(=O)N[C@@H](CCC(N)=O)C(=O)N[C@@H](CCCNC(=N)N)C(=O)N[C@@H](CCCCN)C(=O)N[C@@H](CC(C)C)C(=O)N[C@@H](CC(C)C)C(N)=O)[C@@H](C)O)[C@@H](C)O
# B6: Compound 36 (peptide)
# peptide: Palmitoyl-HSLIFMAFFSEKKYLWGFT-NH2
# SMILES: CCCCCCCCCCCCCCCC(=O)N[C@@H](Cc1c[nH]cn1)C(=O)N[C@@H](CO)C(=O)N[C@@H](CC(C)C)C(=O)N[C@H](C(=O)N[C@@H](Cc1ccccc1)C(=O)N[C@@H](CCSC)C(=O)N[C@@H](C)C(=O)N[C@@H](Cc1ccccc1)C(=O)N[C@@H](Cc1ccccc1)C(=O)N[C@@H](CO)C(=O)N[C@@H](CCC(=O)O)C(=O)N[C@@H](CCCCN)C(=O)N[C@@H](CCCCN)C(=O)N[C@@H](Cc1ccc(O)cc1)C(=O)N[C@@H](CC(C)C)C(=O)N[C@@H](Cc1c[nH]c2ccccc12)C(=O)NCC(=O)N[C@@H](Cc1ccccc1)C(=O)N[C@H](C(N)=O)[C@@H](C)O)[C@@H](C)CC
# B7: Compound 35 (peptide)
# peptide: Palmitoyl-YLHSLIFMAFFSEKKYLWGFT-NH2
# SMILES: CCCCCCCCCCCCCCCC(=O)N[C@@H](Cc1ccc(O)cc1)C(=O)N[C@@H](CC(C)C)C(=O)N[C@@H](Cc1c[nH]cn1)C(=O)N[C@@H](CO)C(=O)N[C@@H](CC(C)C)C(=O)N[C@H](C(=O)N[C@@H](Cc1ccccc1)C(=O)N[C@@H](CCSC)C(=O)N[C@@H](C)C(=O)N[C@@H](Cc1ccccc1)C(=O)N[C@@H](Cc1ccccc1)C(=O)N[C@@H](CO)C(=O)N[C@@H](CCC(=O)O)C(=O)N[C@@H](CCCCN)C(=O)N[C@@H](CCCCN)C(=O)N[C@@H](Cc1ccc(O)cc1)C(=O)N[C@@H](CC(C)C)C(=O)N[C@@H](Cc1c[nH]c2ccccc12)C(=O)NCC(=O)N[C@@H](Cc1ccccc1)C(=O)N[C@H](C(N)=O)[C@@H](C)O)[C@@H](C)CC
# B8: Compound 95 (peptide)
# peptide: Palmitoyl-AGRSDTRQQYRKLLFS-NH2
# SMILES: CCCCCCCCCCCCCCCC(=O)N[C@@H](C)C(=O)NCC(=O)N[C@@H](CCCNC(=N)N)C(=O)N[C@@H](CO)C(=O)N[C@@H](CC(=O)O)C(=O)N[C@H](C(=O)N[C@@H](CCCNC(=N)N)C(=O)N[C@@H](CCC(N)=O)C(=O)N[C@@H](CCC(N)=O)C(=O)N[C@@H](Cc1ccc(O)cc1)C(=O)N[C@@H](CCCNC(=N)N)C(=O)N[C@@H](CCCCN)C(=O)N[C@@H](CC(C)C)C(=O)N[C@@H](CC(C)C)C(=O)N[C@@H](Cc1ccccc1)C(=O)N[C@@H](CO)C(N)=O)[C@@H](C)O
# B9: Compound 45 (peptide)
# peptide: Palmitoyl-VRVLATKLRETNAGRSDTR-NH2
# SMILES: CCCCCCCCCCCCCCCC(=O)N[C@H](C(=O)N[C@@H](CCCNC(=N)N)C(=O)N[C@H](C(=O)N[C@@H](CC(C)C)C(=O)N[C@@H](C)C(=O)N[C@H](C(=O)N[C@@H](CCCCN)C(=O)N[C@@H](CC(C)C)C(=O)N[C@@H](CCCNC(=N)N)C(=O)N[C@@H](CCC(=O)O)C(=O)N[C@H](C(=O)N[C@@H](CC(N)=O)C(=O)N[C@@H](C)C(=O)NCC(=O)N[C@@H](CCCNC(=N)N)C(=O)N[C@@H](CO)C(=O)N[C@@H](CC(=O)O)C(=O)N[C@H](C(=O)N[C@@H](CCCNC(=N)N)C(N)=O)[C@@H](C)O)[C@@H](C)O)[C@@H](C)O)C(C)C)C(C)C
# B10: Compound 48 (peptide)
# peptide: Palmitoyl-RETNAGRSDTRQQRKLLKS-NH2
# SMILES: CCCCCCCCCCCCCCCC(=O)N[C@@H](CCCNC(=N)N)C(=O)N[C@@H](CCC(=O)O)C(=O)N[C@H](C(=O)N[C@@H](CC(N)=O)C(=O)N[C@@H](C)C(=O)NCC(=O)N[C@@H](CCCNC(=N)N)C(=O)N[C@@H](CO)C(=O)N[C@@H](CC(=O)O)C(=O)N[C@H](C(=O)N[C@@H](CCCNC(=N)N)C(=O)N[C@@H](CCC(N)=O)C(=O)N[C@@H](CCC(N)=O)C(=O)N[C@@H](CCCNC(=N)N)C(=O)N[C@@H](CCCCN)C(=O)N[C@@H](CC(C)C)C(=O)N[C@@H](CC(C)C)C(=O)N[C@@H](CCCCN)C(=O)N[C@@H](CO)C(N)=O)[C@@H](C)O)[C@@H](C)O
# B11: Compound 46 (peptide)
# peptide: Palmitoyl-VLATKLRETNAGRSDTRQQ-NH2
# SMILES: CCCCCCCCCCCCCCCC(=O)N[C@H](C(=O)N[C@@H](CC(C)C)C(=O)N[C@@H](C)C(=O)N[C@H](C(=O)N[C@@H](CCCCN)C(=O)N[C@@H](CC(C)C)C(=O)N[C@@H](CCCNC(=N)N)C(=O)N[C@@H](CCC(=O)O)C(=O)N[C@H](C(=O)N[C@@H](CC(N)=O)C(=O)N[C@@H](C)C(=O)NCC(=O)N[C@@H](CCCNC(=N)N)C(=O)N[C@@H](CO)C(=O)N[C@@H](CC(=O)O)C(=O)N[C@H](C(=O)N[C@@H](CCCNC(=N)N)C(=O)N[C@@H](CCC(N)=O)C(=O)N[C@@H](CCC(N)=O)C(N)=O)[C@@H](C)O)[C@@H](C)O)[C@@H](C)O)C(C)C
# B12: Compound 92 (peptide)
# peptide: Palmitoyl-TNAGRSDTRQQARKLL-NH2
# SMILES: CCCCCCCCCCCCCCCC(=O)N[C@H](C(=O)N[C@@H](CC(N)=O)C(=O)N[C@@H](C)C(=O)NCC(=O)N[C@@H](CCCNC(=N)N)C(=O)N[C@@H](CO)C(=O)N[C@@H](CC(=O)O)C(=O)N[C@H](C(=O)N[C@@H](CCCNC(=N)N)C(=O)N[C@@H](CCC(N)=O)C(=O)N[C@@H](CCC(N)=O)C(=O)N[C@@H](C)C(=O)N[C@@H](CCCNC(=N)N)C(=O)N[C@@H](CCCCN)C(=O)N[C@@H](CC(C)C)C(=O)N[C@@H](CC(C)C)C(N)=O)[C@@H](C)O)[C@@H](C)O
# B13: Compound 44 (peptide)
# peptide: Palmitoyl-NIVRVLATKLRETNAGRSD-NH2
# SMILES: CCCCCCCCCCCCCCCC(=O)N[C@@H](CC(N)=O)C(=O)N[C@H](C(=O)N[C@H](C(=O)N[C@@H](CCCNC(=N)N)C(=O)N[C@H](C(=O)N[C@@H](CC(C)C)C(=O)N[C@@H](C)C(=O)N[C@H](C(=O)N[C@@H](CCCCN)C(=O)N[C@@H](CC(C)C)C(=O)N[C@@H](CCCNC(=N)N)C(=O)N[C@@H](CCC(=O)O)C(=O)N[C@H](C(=O)N[C@@H](CC(N)=O)C(=O)N[C@@H](C)C(=O)NCC(=O)N[C@@H](CCCNC(=N)N)C(=O)N[C@@H](CO)C(=O)N[C@@H](CC(=O)O)C(N)=O)[C@@H](C)O)[C@@H](C)O)C(C)C)C(C)C)[C@@H](C)CC
# Molecular target: PTHR1 receptor
# Sequence (P25961 whole entry): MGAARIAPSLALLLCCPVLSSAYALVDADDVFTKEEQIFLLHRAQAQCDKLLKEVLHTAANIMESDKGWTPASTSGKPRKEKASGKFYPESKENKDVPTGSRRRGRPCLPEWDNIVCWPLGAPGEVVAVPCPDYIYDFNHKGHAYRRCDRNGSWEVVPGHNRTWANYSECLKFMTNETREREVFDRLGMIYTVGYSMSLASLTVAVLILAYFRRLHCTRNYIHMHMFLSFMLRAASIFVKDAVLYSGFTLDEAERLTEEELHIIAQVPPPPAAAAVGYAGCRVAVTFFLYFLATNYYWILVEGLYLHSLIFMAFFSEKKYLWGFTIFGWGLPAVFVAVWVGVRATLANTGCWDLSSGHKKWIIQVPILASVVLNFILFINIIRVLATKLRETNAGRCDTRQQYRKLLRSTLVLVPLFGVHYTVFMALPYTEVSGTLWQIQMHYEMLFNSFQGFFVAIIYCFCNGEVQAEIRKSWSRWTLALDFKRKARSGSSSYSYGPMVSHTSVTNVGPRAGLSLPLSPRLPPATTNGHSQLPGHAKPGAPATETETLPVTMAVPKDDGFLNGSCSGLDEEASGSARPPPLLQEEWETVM
Fold Shift of EC50 [fold],Inhibition of Maximal Response [%],Binder
13.4,-67,B1
1.3,5.5,B2
2,9.8,B3
18.7,-24.4,B4
2.7,8.3,B5
1.2,5.9,B6
1.1,24.5,B7
19,-5.7,B8
1.4,9.1,B9
7,-3.3,B10
0.9,20.3,B11
5,8.3,B12
2,-8.3,B13
